{
  "source": "paper PMC8664846",
  "about": "“Heterogeneous dissociation process of truncated RNAs by oligomerized Vasa helicase” (Communications Biology, 2021)",
  "binders": {"B1": {"name": "FLAG-Halo-Vasa (wild-type Bombyx mori Vasa) (enzyme, UniProt O01378 1-601, looked up)", "chain": "MDDDWDDSCEAVVVPPPPLQNHDSVDEGHSLSRGRGFPSFNEDDEKENGYGERRGRGGRGGGRGRGGRGGRGGSREQHSDYETNGDHDDRGRGERGRGRGRGGRGGGRGGGGGGGDRNDYEDNEIGENGETKKPVTYVPPEPTNDETEIFSSTISSGINFDKFDHIAVKVSGENPPRPIESFETANLRKYVLDNVLKAGYRKPTPIQKNAIPIIMSGRDLMGCAQTGSGKTAAFLVPIINMLLQDPKDLISENGCAQPQVIIVSPTRELTLQIFNEARKFSYGSVLKVAVAYGGTAVRHQGDNIARGCHILVATPGRLHDFVERNRVSFGSVRFVVLDEADRMLDMGFMPSIEKMMLHPTMVETTKRQTLMFSATFPEDIQHLAGRFLNNYLFVAVGIVGGASTDVEQIFIEVTKYEKRNSLKQLIEENDGKRILVFVETKRNADFIAAMLSEQQLLTSSIHGDRMQREREEALQNFKSGKHCILVATAVAARGLDIKNVDIVVNYDLPKSIDEYVHRIGRTGRVGNRGKAVSFYDSDQDLALVADLSKILRQADQSVPDFLKGGGTATFKGNKYGGSDVRNFNNANTAVVDQGQEPEEEW", "modifications": "TMR-labelled HaloTag ligand on the HaloTag; the immobilised copy in the aggregation measurement also labelled with Biotin-XX-NHS", "notes": "Vasa, ATP-dependent DEAD-box RNA helicase of Bombyx mori, wild type; Non-fluorescent Vasa was used only in RNA dissociation assays; also called WT-Vasa; TMR-Vasa; source: BmN4 cells, purified (anti-FLAG gel column); not shown: HaloTag, N-terminal, kept"}},
  "key": {"[1]": {"molecular_target": "the molecule itself", "assay": "single-molecule fluorescence intensity counting (TIRF microscopy); TMR-labelled Vasa adsorbed on poly-L-lysine-coated glass; number of molecules in a spot from the intensity of a single TMR; 30 mM HEPES pH 7.3, 150 mM potassium acetate, 5 mM magnesium acetate, 0.1% NP-40, 500 uM TCEP, oxygen scavengers; with 5 ug/ml yeast RNA further oligomerization"}, "[2]": {"molecular_target": "T1, Siwi-piRISC (FLAG-Siwi loaded with piRNA) (Bombyx mori, UniProt A8D8P8 1-899)", "T1 construct": "Siwi (Silkworm Piwi), PIWI protein of Bombyx mori; In the assay Siwi carried piRNA (exogenous piRNA-4) and was held on the glass through the biotinylated, ATTO647N-labelled target RNA; the only protein chain is Siwi; also called Silkworm Piwi; source: BmN4 cells, purified (anti-FLAG gel column)", "T1 sequence (looked up)": "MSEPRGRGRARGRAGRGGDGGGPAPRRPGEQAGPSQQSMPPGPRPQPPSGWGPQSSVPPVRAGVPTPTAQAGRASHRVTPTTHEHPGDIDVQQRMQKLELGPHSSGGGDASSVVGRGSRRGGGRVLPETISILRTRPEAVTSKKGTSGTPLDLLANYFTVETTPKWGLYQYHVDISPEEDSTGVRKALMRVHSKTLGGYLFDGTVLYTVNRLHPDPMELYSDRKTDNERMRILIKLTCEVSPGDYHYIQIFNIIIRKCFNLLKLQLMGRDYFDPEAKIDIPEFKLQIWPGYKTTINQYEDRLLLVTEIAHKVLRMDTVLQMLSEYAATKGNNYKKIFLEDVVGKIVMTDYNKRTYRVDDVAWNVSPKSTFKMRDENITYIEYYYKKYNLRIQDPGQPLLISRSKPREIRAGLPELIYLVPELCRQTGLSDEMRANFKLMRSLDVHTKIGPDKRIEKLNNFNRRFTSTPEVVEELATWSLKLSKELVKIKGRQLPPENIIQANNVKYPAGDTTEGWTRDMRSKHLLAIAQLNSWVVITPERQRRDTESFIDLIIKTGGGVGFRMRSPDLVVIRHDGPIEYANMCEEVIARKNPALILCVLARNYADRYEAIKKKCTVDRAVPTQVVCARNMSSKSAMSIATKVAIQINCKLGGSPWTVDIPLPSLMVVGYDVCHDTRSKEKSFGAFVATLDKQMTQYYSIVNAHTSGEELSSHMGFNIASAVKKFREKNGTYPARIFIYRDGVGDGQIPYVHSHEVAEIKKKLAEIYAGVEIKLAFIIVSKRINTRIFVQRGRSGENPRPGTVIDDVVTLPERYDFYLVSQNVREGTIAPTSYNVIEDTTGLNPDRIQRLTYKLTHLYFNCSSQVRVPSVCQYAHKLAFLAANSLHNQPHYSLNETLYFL", "assay": "single-molecule two (or three)-colour colocalisation (TIRF microscopy); premix of 10 nM biotinylated ATTO647N target RNA, 625 nM TMR-Vasa and 380 nM Siwi fixed on the surface by avidin-biotin through the target RNA; exogenous piRNA-4; assay buffer with oxygen scavenger; no ATP", "conditions": "both partners purified"}},
  "data": [
    {"binder": "B1", "values": [
      {"measurement": "stoichiometry N", "setting": "[1]", "value": 2},
      {"measurement": "binding result", "setting": "[2]", "value": "binds"}
    ]}
  ]
}
